Measured values published in US20220281997A1 (NANJING GENSCRIPT BIOTECH, published 2022).

B1: R166.H8 (antibody, V domains shown)
VH: QSVEESGGRLVTPGTPLTLTCTVSGFSLSSFAMSWVRQAPGKGLEWIGIIYATGGTRDYATWAAGRFTISKTSTTVGLKMTSPTTEDTATYFCARDRSPDYSAAFNLWGQGTLVTVSS
VL: IVMTQTPSSKSVPVGDTVTINCQASESVYSNNHLAWFQQKPGQPPKLLIYSASTLESGVPSRFKGSGSGTQFTLTISGVQCDDAATYYCAGYKSSDTDGTSFGGGTEVVVKG
notes: Rabbit monoclonal; also called clone R166.H8
B2: R166.E7 (antibody, V domains shown)
VH: QSVEESGGRLVTPGTPLTLTCTVSGFSLSSFAMSWVRQAPGKGLEWIGIIYTGGTRDYATWAKGRFTISKTSTTVDLKMTSPTTEDTATYFCARDRSPDYSAAFNLWGQGTLVTVSS
VL: B1 VL
notes: Rabbit monoclonal; also called clone R166.E7
B3: R166.G2 (antibody, V domains shown)
VH: QSLEESGGRLVKPDETLTITCTVSGIDLSSDAMSWVRQAPGKGLEWIGLINRYGNTYYASWAKGRFTISKTSTTVDLKVTSLTTEDTATYFCARYGTDSDFYFLDLWGQGTLVTVSS
VL: DIVMTQTPASVSEPVGGTVTIKCQASQSIYSYLSWYQQKPGQRPKLLIYKASKLVSGVPSRFRGSGSGTEFTLTISDLECADAASYYCQSDWLISSNGNTFGGGTEVVVTG
notes: Rabbit monoclonal; also called clone R166.G2
B4: R166.G8 (antibody, V domains shown)
VH: LEQSGGGAEGGLVKPGGSLELCCKASGFSLSNIYWICWVRQAPGTGLEWIGCINSGSNSYTYYANWVDGRFTLSRDIDQSTGCLQLNSLTAADTAMYYCARDRDAADTSDWSLNFWGQGTLVTVSS
VL: QVLTQTPSSVSAAVGGTVTISCQSSDSVNNDNWLAWYQQKPGQPPKLLIYQASKLASGVPSRFSGSGSGTQFTLTISGVQCDDAANYYCQGTGYSSTWYVAFGGGTEVVVKG
notes: Rabbit monoclonal; also called clone R166.G8
B5: R166.F2 (antibody, V domains shown)
VH: QSVEESGGRLVTPGTPLTLTCTASGFTISSHDMSWVRQAPGKGLEWIGYIYYGSGSTDYASWAEGRFTITRNTNENTVTLKMTSLTTEDTATYFCARGGYVGGGVDAFDPWGPGTVVTVSS
VL: AYDMTQTPASVEVAVGGTVTIKCQASQSIYTYLSWYQQKPGQPPKLLIYRASTLASGVSSRFKGSGSGTDFTLTISGAQCADAATYYCQQGALSSNIHNTFGGGTEVVVKG
notes: Rabbit monoclonal; also called clone R166.F2

target: T1, AS154 VHH (camel-derived); assay: indirect ELISA, VHH coated
T1 construct: One of the 10 different camel-derived nanobodies; not shown: His tag (VHH-His)
Method: (§1) The ELISA plate was coated with 10 different VHHs at […] in 100 μl/well of PBS at 4° C. overnight, respectively; the plate was washed with PBS-T (0.05% Tween) and blocked with 200 μl/well of PBST containing 1% BSA at 37° C. for 0.5 hours; the blocking solution was aspirated and discarded, and 100 μl of 1 μg/ml purified antibodies were added to the first well, diluted in a 3-fold gradient for a total of 11 test concentration gradients and incubated at room temperature for 1 hour; the plate was washed three times with PBST and incubated with 100 μl/well of goat anti-rabbit IgG conjugated with horseradish peroxidase (GenScript Goat Anti-Rabbit IgG Antibody (H&L) [HRP], pAb; CAT #: A00098) at 37° C. for 0.5 hours; the plate was washed five times with PBST, and then a TMB color developing solution was added; and the plate was incubated in the dark at room temperature for 15 minutes. The reaction was stopped by adding 50 μl of 1 M HCl stop solution. The plate was read at 450 nm using a microplate reader; and the binding abilities of 15 clones to VHH-His were obtained (as shown in FIGS. 6a and 6b). […] On one hand, the affinities of the antibody of the same camel-derived nanobody to different camel-derived nanobodies were different; on the other hand, the affinities of different antibodies of camel-derived nanobodies to the same camel-derived nanobody were different. However, on the whole, all the 15 purified antibodies can be recognized with 10 different camel-derived nanobodies.

T1 sequence (VHH, as listed by the source): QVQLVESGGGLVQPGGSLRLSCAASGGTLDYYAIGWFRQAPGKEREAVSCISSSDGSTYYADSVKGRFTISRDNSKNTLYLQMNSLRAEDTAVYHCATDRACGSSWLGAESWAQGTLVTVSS

Binding result, binds:
B1, B2, B3, B4, B5

target: T2, AS325 VHH (camel-derived); assay: indirect ELISA, VHH coated
T2 construct: One of the 10 different camel-derived nanobodies; not shown: His tag (VHH-His)
Method: as §1

T2 sequence (VHH, as listed by the source): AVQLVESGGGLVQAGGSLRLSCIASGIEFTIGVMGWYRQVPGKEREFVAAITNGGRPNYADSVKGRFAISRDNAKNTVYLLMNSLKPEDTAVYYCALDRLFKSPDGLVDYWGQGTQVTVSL

Binding result, binds:
B1, B2, B3, B4, B5

target: T3, AS656 VHH (camel-derived); assay: indirect ELISA, VHH coated
T3 construct: One of the 10 different camel-derived nanobodies; not shown: His tag (VHH-His)
Method: as §1

T3 sequence (VHH, as listed by the source): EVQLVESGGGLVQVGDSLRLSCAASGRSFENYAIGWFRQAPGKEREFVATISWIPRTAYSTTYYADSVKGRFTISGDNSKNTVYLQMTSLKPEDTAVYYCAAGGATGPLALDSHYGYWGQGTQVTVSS

Binding result, binds:
B1, B2, B3, B4, B5

target: T4, AS673 VHH (camel-derived); assay: indirect ELISA, VHH coated
T4 construct: One of the 10 different camel-derived nanobodies; not shown: His tag (VHH-His)
Method: as §1

T4 sequence (VHH, as listed by the source): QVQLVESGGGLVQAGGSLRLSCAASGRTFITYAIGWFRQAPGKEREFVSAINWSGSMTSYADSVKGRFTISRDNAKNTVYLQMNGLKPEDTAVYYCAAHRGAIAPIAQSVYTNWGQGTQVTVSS

Binding result, binds:
B1, B2, B3, B4, B5

target: T5, AS587 VHH (camel-derived); assay: indirect ELISA, VHH coated
T5 construct: One of the 10 different camel-derived nanobodies; not shown: His tag (VHH-His)
Method: as §1

T5 sequence (VHH, as listed by the source): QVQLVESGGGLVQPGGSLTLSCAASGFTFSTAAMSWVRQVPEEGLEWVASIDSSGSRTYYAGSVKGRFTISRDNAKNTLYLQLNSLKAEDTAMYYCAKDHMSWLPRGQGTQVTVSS

Binding result, binds:
B1, B2, B3, B4, B5

target: T6, AS588 VHH (camel-derived); assay: indirect ELISA, VHH coated
T6 construct: One of the 10 different camel-derived nanobodies; not shown: His tag (VHH-His)
Method: as §1

T6 sequence (VHH, as listed by the source): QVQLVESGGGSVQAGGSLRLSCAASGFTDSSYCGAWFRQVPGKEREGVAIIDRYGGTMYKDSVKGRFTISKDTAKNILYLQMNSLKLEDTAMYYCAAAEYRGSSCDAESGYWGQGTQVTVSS

Binding result, binds:
B1, B2, B3, B4, B5

target: T7, AS200 VHH (camel-derived); assay: indirect ELISA, VHH coated
T7 construct: One of the 10 different camel-derived nanobodies; not shown: His tag (VHH-His)
Method: as §1

T7 sequence (VHH, as listed by the source): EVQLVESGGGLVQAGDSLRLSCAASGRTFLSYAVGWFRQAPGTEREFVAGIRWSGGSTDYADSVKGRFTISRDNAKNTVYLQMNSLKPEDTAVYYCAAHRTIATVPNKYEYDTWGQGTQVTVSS

Binding result, binds:
B1, B2, B3, B4, B5

target: T8, AS988 VHH (camel-derived); assay: indirect ELISA, VHH coated
T8 construct: One of the 10 different camel-derived nanobodies; not shown: His tag (VHH-His)
Method: as §1

T8 sequence (VHH, as listed by the source): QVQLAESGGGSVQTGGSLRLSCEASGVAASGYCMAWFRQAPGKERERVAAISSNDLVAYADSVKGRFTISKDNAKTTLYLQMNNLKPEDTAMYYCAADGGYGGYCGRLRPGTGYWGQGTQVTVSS

Binding result, binds:
B1, B2, B3, B4, B5

target: T9, AS675 VHH (camel-derived); assay: indirect ELISA, VHH coated
T9 construct: One of the 10 different camel-derived nanobodies; not shown: His tag (VHH-His)
Method: as §1

T9 sequence (VHH, as listed by the source): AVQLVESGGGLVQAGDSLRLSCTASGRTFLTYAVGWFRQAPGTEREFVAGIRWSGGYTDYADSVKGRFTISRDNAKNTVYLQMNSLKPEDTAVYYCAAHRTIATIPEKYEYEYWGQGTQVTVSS

Binding result, binds:
B1, B2, B3, B4, B5

target: T10, AS519 VHH (camel-derived); assay: indirect ELISA, VHH coated
T10 construct: One of the 10 different camel-derived nanobodies; not shown: His tag (VHH-His)
Method: as §1

T10 sequence (VHH, as listed by the source): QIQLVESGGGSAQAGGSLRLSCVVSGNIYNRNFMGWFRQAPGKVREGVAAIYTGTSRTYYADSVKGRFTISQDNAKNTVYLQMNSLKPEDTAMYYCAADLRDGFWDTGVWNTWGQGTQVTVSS

Binding result, binds:
B1, B2, B3, B4, B5

target: T11, His-tag camel-derived nanobody AS718 VHH-His (camel-derived); assay: indirect ELISA, AS718 VHH-His coated, hybridoma supernatant
T11 construct: Immunogen; recombinantly expressed with a C-terminal His tag; also called immunogen AS718; immunogen AS718 VHH-His; not shown: C-terminal His tag
Method: The rabbit spleen was extracted and homogenized to produce a single-cell suspension, and a single-cell suspension of myeloma cells was prepared at the same time. 1.0×10⁸ splenocytes were fused with 1.2×10⁵ myeloma cells by electrofusion; the fused cells were resuspended in 100 ml of DMEM/10% FBS culture medium containing hybridoma selective agents, thymidine, hypoxanthine and aminopterin, and transferred to a 150×96-well plate in a volume of 100 μl with a pipette; and the plate was incubated at 37° C. in 6% CO₂. After 9 days of incubation, the indirect ELISA was used to evaluate the binding ability of the antibody in the supernatant to VHH-His, indicating the presence of the antibody to VHH-His.
The ELISA plate was coated with 100 μl/well of 0.5 μg/ml VHH-His or His protein in PBS at 4° C. overnight; the plate was washed with PBS-T (0.05% Tween20) and blocked with 200 μl/well of PBST containing 1% BSA at 37° C. for 0.5 hours; the blocking solution was aspirated and discarded, and 100 μl of hybridoma cell culture supernatant was added to each well and then incubated at room temperature for 1 hour; after the incubation, the supernatant was discarded, and the plate was washed three times with PBST and incubated with 100 μl/well of goat anti-rabbit IgG conjugated with horseradish peroxidase (GenScript Goat Anti-Rabbit IgG Antibody (H&L) [HRP], pAb; CAT #: A00098) at 37° C. for 0.5 hours; the plate was washed five times with PBST, and then a TMB color developing solution was added; and the plate was incubated in the dark at room temperature for 15 minutes. The reaction was stopped by adding 50 μl of 1 M HCl stop solution. The plate was read at 450 nm using a microplate reader. In FIG. 3, by the mode of indirect ELISA, immunogen AS718 VHH-His was used to coat the ELISA detection plate, and the titers of the supernatant stock solutions of 15 parent clones were detected by OD450 reading, and the cross-reactions thereof with the His-tag protein were detected at the same time to exclude non-specific combinations. In the experiment, the positive serum was used as a positive control for immunogen AS718 VHH-His, and the Anti-His antibody was used as a positive control for detection target His-tag protein in the reverse screening. The detection value greater than 0.5 was determined to be positive, and the detection value less than 0.2 was determined to be negative.

T11 sequence (VHH, as listed by the source): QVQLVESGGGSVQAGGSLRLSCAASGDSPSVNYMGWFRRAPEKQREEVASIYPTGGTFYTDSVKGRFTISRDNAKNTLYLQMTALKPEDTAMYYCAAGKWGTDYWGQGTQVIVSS

Binding result, binds:
B1, B2, B3, B4, B5
